The labels stand for the following.
B1: Double-strand break repair protein rad32 (Schizosaccharomyces pombe (strain ATCC 38366 / 972)), Q09683 (parent)
chain: MPNDPSDMNNELHNENTIRILISSDPHVGYGEKDPVRGNDSFVSFNEILEIARERDVDMILLGGDIFHDNKPSRKALYQALRSLRLNCLGDKPCELELLSDTSLTTGDTAVCNINYLDPNINVAIPVFSIHGNHDDPSGDGRYSALDILQVTGLVNYFGRVPENDNIVVSPILLQKGFTKLALYGISNVRDERLYHSFRENKVKFLRPDLYRDEWFNLLTVHQNHSAHTPTSYLPESFIQDFYDFVLWGHEHECLIDGSYNPTQKFTVVQPGSTIATSLSPGETAPKHCGILNITGKDFHLEKIRLRTVRPFIMKDIILSEVSSIPPMVENKKEVLTYLISKVEEAITEANAQWYEAQGTVPVVENEKPPLPLIRLRVDYTGGYQTENPQRFSNRFVGRVANATDVVQFYLKKKYTRSKRNDGLYTSAVEDIKINSLRVESLVNEYLKTNRLECLPEDSLGEAVVNFVEKDDRDAIKECVETQLNKQINLLVKKRVTEENLEQEISSIINDLPKISTTKRKDYEELPEEVSETSINIAEHTPVLKHTSSLLDHHSPLATSSSEHEMEATPSPALLKKTNKRRELPSSLTKKNTRTPQRSKEVKKVPARKLSQSTKKSDKNTQSTLLFYDPSSTTEAQYLDNEDDEILDD
partner: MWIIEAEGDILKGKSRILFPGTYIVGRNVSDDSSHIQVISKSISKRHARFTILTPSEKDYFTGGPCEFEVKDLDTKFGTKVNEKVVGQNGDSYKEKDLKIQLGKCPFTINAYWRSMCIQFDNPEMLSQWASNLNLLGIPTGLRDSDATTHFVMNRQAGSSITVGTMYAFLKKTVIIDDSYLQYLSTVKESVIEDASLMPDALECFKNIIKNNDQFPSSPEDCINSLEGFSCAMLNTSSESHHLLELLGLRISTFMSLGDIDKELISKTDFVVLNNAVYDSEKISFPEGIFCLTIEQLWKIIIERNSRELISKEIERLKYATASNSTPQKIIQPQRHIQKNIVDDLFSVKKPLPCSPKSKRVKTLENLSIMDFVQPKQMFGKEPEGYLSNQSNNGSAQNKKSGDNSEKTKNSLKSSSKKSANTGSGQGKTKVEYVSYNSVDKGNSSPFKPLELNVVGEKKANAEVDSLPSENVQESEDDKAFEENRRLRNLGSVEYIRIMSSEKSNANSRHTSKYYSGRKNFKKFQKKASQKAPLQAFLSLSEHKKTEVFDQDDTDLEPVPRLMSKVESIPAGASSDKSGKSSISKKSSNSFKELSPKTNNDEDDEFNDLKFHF
B2: Double-strand break repair protein rad32 (Schizosaccharomyces pombe (strain ATCC 38366 / 972)), Q09683 (parent)
chain: B1 chain
partner: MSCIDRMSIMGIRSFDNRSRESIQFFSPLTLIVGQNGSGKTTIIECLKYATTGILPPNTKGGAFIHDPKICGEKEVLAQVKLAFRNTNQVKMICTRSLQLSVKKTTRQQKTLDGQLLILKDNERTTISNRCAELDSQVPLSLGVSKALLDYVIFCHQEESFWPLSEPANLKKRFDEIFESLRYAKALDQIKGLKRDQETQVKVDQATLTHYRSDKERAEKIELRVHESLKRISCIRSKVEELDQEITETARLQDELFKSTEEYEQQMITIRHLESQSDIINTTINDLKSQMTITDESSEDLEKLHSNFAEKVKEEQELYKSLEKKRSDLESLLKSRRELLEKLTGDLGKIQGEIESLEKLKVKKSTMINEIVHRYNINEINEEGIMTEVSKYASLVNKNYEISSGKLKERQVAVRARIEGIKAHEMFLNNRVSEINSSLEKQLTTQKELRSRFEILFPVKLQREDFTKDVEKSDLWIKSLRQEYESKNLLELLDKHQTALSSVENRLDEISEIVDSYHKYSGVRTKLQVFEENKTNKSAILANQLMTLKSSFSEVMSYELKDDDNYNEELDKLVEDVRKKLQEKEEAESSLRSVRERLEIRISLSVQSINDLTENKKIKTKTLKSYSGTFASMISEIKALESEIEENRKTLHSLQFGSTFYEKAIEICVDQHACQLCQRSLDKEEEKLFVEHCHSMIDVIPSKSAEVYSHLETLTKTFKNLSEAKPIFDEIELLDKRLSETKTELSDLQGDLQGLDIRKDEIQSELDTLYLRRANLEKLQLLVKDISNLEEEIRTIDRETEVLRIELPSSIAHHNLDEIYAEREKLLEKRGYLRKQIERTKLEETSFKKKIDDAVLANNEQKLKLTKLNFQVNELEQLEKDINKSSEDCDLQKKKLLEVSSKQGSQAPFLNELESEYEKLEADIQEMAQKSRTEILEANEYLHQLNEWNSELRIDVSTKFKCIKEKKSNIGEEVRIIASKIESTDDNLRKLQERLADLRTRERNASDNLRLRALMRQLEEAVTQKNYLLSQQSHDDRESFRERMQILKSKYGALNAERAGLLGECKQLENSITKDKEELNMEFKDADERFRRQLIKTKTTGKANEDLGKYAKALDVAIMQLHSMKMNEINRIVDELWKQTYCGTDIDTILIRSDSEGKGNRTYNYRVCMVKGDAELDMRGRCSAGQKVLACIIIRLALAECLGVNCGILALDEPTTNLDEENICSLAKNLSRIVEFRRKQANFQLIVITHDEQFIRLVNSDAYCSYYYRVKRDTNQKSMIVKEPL

The variants in the first assay derive from B1. Particulars: with nbs1_schpo nbs1, O43070.
On to L77K;L154D, for which the “effect of a mutation on the interaction” value is “decreasing interaction”.

In another assay the parent is B2. The note with it: with rad50_schpo rad50, Q9UTJ8.
As for L77K;L154D, the “effect of a mutation on the interaction” value is listed as “decreasing interaction”.

The values are drawn from IntAct's records for PubMed 18854158.
